Data as given in US20140357577A1, “HIV Membrane Fusion Inhibitors” (priority 2011, published 2014).
Starred links: 1 amine or outer side, 2 acyl side, 3 side chain; linkers in the order of their positions; H or OH if unused. Positions of bridges follow the written chain, without caps; N, C: chain ends. Non-standard residues stand in square brackets, D forms with d. Primed or numbered codes have the meaning given here. *: point of attachment. cholesteryl‑oxycarbonylmethyl = CC(C)CCC[C@@H](C)[C@H]1CC[C@H]2[C@@H]3CC=C4C[C@@H](OC(=O)C*)CC[C@]4(C)[C@H]3CC[C@]12C; B21″ = 2,7-dimethylnaphtyl linker joining two Cys, c1cc2ccc(C[*:2])cc2cc1C[*:1]; tBuAla = CC(C)(C)C[C@H](N)C(=O)O; Suc = O=C(CCC(=O)[*:2])[*:1]; hCys = N[C@@H](CCS)C(=O)O; Nva = CCC[C@H](N)C(=O)O; Abu = CC[C@H](N)C(=O)O; Hexanoyl = CCCCCC(=O)*; Pentanoyl = CCCCC(=O)*; B1 = not defined here; B3 = not defined here; Butyryl = CCCC(=O)*

target: gp41 of HIV-1 strain HXB2D with mutation V38A (HIV-1 strain HXB2D, UniProt P04578); experiment: cell-based or functional assay; conditions: not given

Molecule	fold change in EC50, HIV-HXB2D V38A mutant
Ac-ECYLACIEALIRAAQEQQEKNEAALR-NH2 (linker 2-6 via B1; reading uncertain) [peptide 45]	14 fold
Pentanoyl-ECYLACIEALIRAAQEQQEKNEAALR-NH2 (linker 2-6 via B1; reading uncertain) [peptide 38]	3 fold
Suc-CYLACIEELIRKAQEQQEKNEAAL[tBuAla]-NH2 (linker 1-5 via B3; reading uncertain) [peptide 27]	28 fold
Ac-ACYLACIEALIRKAQEQQEKNEAALR-NH2 (linker 2-6 via B1; reading uncertain) [peptide 48]	10 fold
Ac-SWETWEREIENYTRQIYRILEESQEQQDRNERDLLE-NH2 [Sifuvirtide]	1 fold
Suc-CYLACIEELIRKAQEQQEKNEAAL[tBuAla]-NH2 (linker 1-5 via B1; reading uncertain) [peptide 24]	26 fold
Ac-ECYLACIEELIRKAQEQQEKNEAALR-NH2 (linker 2-6 via B1; reading uncertain) [peptide 37]	7 fold
Hexanoyl-ECYLACIEELIRKAQEQQEKNEAALR-NH2 (linker 2-6 via B1; reading uncertain) [peptide 42]	2 fold
Suc-ACYLACIEELIRKAQEQQEKNEAALR-NH2 (linker 2-6 via B1; not fully specified; reading uncertain) [peptide 31]	14 fold
Pentanoyl-ECYLACIEELIRKAQEQQEKNEAALR-NH2 (linker 2-6 via B1; reading uncertain) [peptide 41]	2 fold
Suc-ACYLACIDELIKKAQEQQEKNEAALR-NH2 (linker 2-6 via B1; reading uncertain) [peptide 30]	8 fold
Suc-ECYLRCIEELIRKAQEQQEKNEAALR-NH2 (linker 2-6 via B1; reading uncertain) [peptide 29]	7 fold
Suc-ANYLALIEALIRAAQEQQEKNEAALRGSGC(cholesteryl‑oxycarbonylmethyl)-NH2 (SMILES CC[C@H](C)[C@H](NC(=O)[C@H](CC(C)C)NC(=O)[C@H](C)NC(=O)[C@H](CCC(=O)O)NC(=O)[C@@H](NC(=O)[C@H](CC(C)C)NC(=O)[C@H](C)NC(=O)[C@H](CC(C)C)NC(=O)[C@H](Cc1ccc(O)cc1)NC(=O)[C@H](CC(N)=O)NC(=O)[C@H](C)NC(=O)CCC(=O)O)[C@@H](C)CC)C(=O)N[C@@H](CCCNC(=N)N)C(=O)N[C@@H](C)C(=O)N[C@@H](C)C(=O)N[C@@H](CCC(N)=O)C(=O)N[C@@H](CCC(=O)O)C(=O)N[C@@H](CCC(N)=O)C(=O)N[C@@H](CCC(N)=O)C(=O)N[C@@H](CCC(=O)O)C(=O)N[C@@H](CCCCN)C(=O)N[C@@H](CC(N)=O)C(=O)N[C@@H](CCC(=O)O)C(=O)N[C@@H](C)C(=O)N[C@@H](C)C(=O)N[C@@H](CC(C)C)C(=O)N[C@@H](CCCNC(=N)N)C(=O)NCC(=O)N[C@@H](CO)C(=O)NCC(=O)N[C@@H](CSCC(=O)O[C@H]1CC[C@@]2(C)C(=CC[C@H]3[C@@H]4CC[C@H]([C@H](C)CCCC(C)C)[C@@]4(C)CC[C@@H]32)C1)C(N)=O) [peptide 35]	4 fold
Suc-ACY[Nva]ACIEALIRAAQEQQEKNEAALR-NH2 (linker 2-6 via B1; reading uncertain) [peptide 44]	15 fold
Suc-ACYLACIDELIAKAQEQQEKNEAALR-NH2 (linker 2-6 via B1; reading uncertain) [peptide 36]	23 fold
Butyryl-ECYLACIEELIRKAQEQQEKNEAALR-NH2 (linker 2-6 via B1; reading uncertain) [peptide 40]	3 fold
Pentanoyl-ECYLACIEALIRAAQEQQEKNEAALR-NH2 (linker 2-6 via B21″; SMILES CCCCC(=O)N[C@@H](CCC(=O)O)C(=O)N[C@H]1CSCc2ccc3ccc(cc3c2)CSC[C@@H](C(=O)N[C@H](C(=O)N[C@@H](CCC(=O)O)C(=O)N[C@@H](C)C(=O)N[C@@H](CC(C)C)C(=O)N[C@H](C(=O)N[C@@H](CCCNC(=N)N)C(=O)N[C@@H](C)C(=O)N[C@@H](C)C(=O)N[C@@H](CCC(N)=O)C(=O)N[C@@H](CCC(=O)O)C(=O)N[C@@H](CCC(N)=O)C(=O)N[C@@H](CCC(N)=O)C(=O)N[C@@H](CCC(=O)O)C(=O)N[C@@H](CCCCN)C(=O)N[C@@H](CC(N)=O)C(=O)N[C@@H](CCC(=O)O)C(=O)N[C@@H](C)C(=O)N[C@@H](C)C(=O)N[C@@H](CC(C)C)C(=O)N[C@@H](CCCNC(=N)N)C(N)=O)[C@@H](C)CC)[C@@H](C)CC)NC(=O)[C@H](C)NC(=O)[C@H](CC(C)C)NC(=O)[C@H](Cc2ccc(O)cc2)NC1=O) [peptide 39]	2 fold
Suc-ACYLACIEALIRA[Nva]QEQQEKNEAALR-NH2 (linker 2-6 via B1; reading uncertain) [peptide 46]	6 fold
Ac-ENYTRQIYRILEESQEQQDRNERDLL-NH2 [Sifuvirtide-PBD]	> 3 fold
Suc-ACYLACIEALIRA[Abu]QEQQEKNEAALR-NH2 (linker 2-6 via B1; reading uncertain) [peptide 47]	17 fold
Suc-CYLACIEALIRAAQEQQEKNEAALR-NH2 (linker 1-5 via B1; reading uncertain) [peptide 26]	19 fold
Suc-ACYLACIEALIRAAQEQQEKNEAALR-NH2 (linker 2-6 via B1; reading uncertain) [peptide 43]	19 fold
Suc-ENYLRLIEELIRKAQEQQEKNEAALRGSGC(cholesteryl‑oxycarbonylmethyl)-NH2 (SMILES CC[C@H](C)[C@H](NC(=O)[C@H](CC(C)C)NC(=O)[C@H](CCC(=O)O)NC(=O)[C@H](CCC(=O)O)NC(=O)[C@@H](NC(=O)[C@H](CC(C)C)NC(=O)[C@H](CCCNC(=N)N)NC(=O)[C@H](CC(C)C)NC(=O)[C@H](Cc1ccc(O)cc1)NC(=O)[C@H](CC(N)=O)NC(=O)[C@H](CCC(=O)O)NC(=O)CCC(=O)O)[C@@H](C)CC)C(=O)N[C@@H](CCCNC(=N)N)C(=O)N[C@@H](CCCCN)C(=O)N[C@@H](C)C(=O)N[C@@H](CCC(N)=O)C(=O)N[C@@H](CCC(=O)O)C(=O)N[C@@H](CCC(N)=O)C(=O)N[C@@H](CCC(N)=O)C(=O)N[C@@H](CCC(=O)O)C(=O)N[C@@H](CCCCN)C(=O)N[C@@H](CC(N)=O)C(=O)N[C@@H](CCC(=O)O)C(=O)N[C@@H](C)C(=O)N[C@@H](C)C(=O)N[C@@H](CC(C)C)C(=O)N[C@@H](CCCNC(=N)N)C(=O)NCC(=O)N[C@@H](CO)C(=O)NCC(=O)N[C@@H](CSCC(=O)O[C@H]1CC[C@@]2(C)C(=CC[C@H]3[C@@H]4CC[C@H]([C@H](C)CCCC(C)C)[C@@]4(C)CC[C@@H]32)C1)C(N)=O) [peptide 32]	1 fold
Suc-ACYLACIEELIRKAQEQQEKNEAAL[dR]-NH2 (linker 2-6 via B1; reading uncertain) [peptide 34]	19 fold
Suc-ECYLACIEALIRAAQEQQEKNEAALR-NH2 (linker 2-6 via B1; reading uncertain) [peptide 33]	11 fold
Suc-[hCys]YLA[hCys]IEALIRAAREQQEKNEALLR-NH2 (linker 1-5 via B1; reading uncertain) [peptide 28]	4 fold

tested on: HIV wild type virus strain IIIB; experiment: Standard Anti-Viral-Experiment (AVE), HIV-1 replication assay in MT4-LTR-EGFP cells, wild type IIIB; assay type: cell-based; conditions: 3 days, EGFP signal
Excerpt: • Standard Anti-Viral-Experiment “AVE” (wild type HIV strain IIIB+HIV strain HXB2D side directed mutants V38A and Q40H)
The HIV-1 replication assay measures virus replication (HIV wild type virus strain 111B or HXB2D, or a HIV mutant virus strain HXB2D with mutation V38A or Q40H in the gp41 gene) as an induction of enhanced green fluorescent protein (EGFP) expression. The indicator MT4-LTR-EGFP cells contain an EGFP gene under the control of the HIV-1 LTR promoter sequence. Successful HIV-1 infection results in viral Tat protein expression and subsequent induction of EGFP expression. Compounds/peptides inhibiting HIV-1 infection are expected to reduce EGFP expression as compared to the untreated HIV-infected control.
Serial 4-fold dilutions of test compounds/peptides were mixed with HIV-1 (IIIB, HXB2D, or a HXB2D mutant virus (V38A or Q40H)) and MT4-LTR-EGFP cells and incubated at 37° C. After 3 days, the wells were examined for EGFP expression using an argon laser-scanning microscope. The effective compound/peptide concentration inhibiting 50% of the virus-induced EGFP signal (EC50) was determined by linear interpolation of the EGFP signal vs. logarithm of the compound concentration; (T20, C34 and Sifuvirtide were added as reference compounds). For the V38A and Q40H mutant viruses, results were reported as a fold change in EC50, as compared with a drug-susceptible wild type strain HXB2D, which forms the backbone of the mutant virus. • Standard AVE (50% Human Serum)

Molecule	EC50
NNYTSLIHSLIEESQNQQEKNEQELL [C34-PBD*, reference compound]	> 49.2 µM
